Experiments:
Experiment in all cases: cell-based or functional assay
[1] = target: SARS-CoV-2 Omicron BA.1.1 假病毒 S蛋白 (SARS-CoV-2 (Omicron BA.1.1))
[2] = target: SARS-CoV-2 Alpha 假病毒 S蛋白 (SARS-CoV-2 (Alpha))
[3] = target: SARS-CoV-2 Beta 假病毒 S蛋白 (SARS-CoV-2 (Beta))
[4] = target: SARS-CoV-2 Omicron BA.2 假病毒 S蛋白 (SARS-CoV-2 (Omicron BA.2))
[5] = target: SARS-CoV-2 Omicron BA.2.75 假病毒 S蛋白 (SARS-CoV-2 (Omicron BA.2.75))
[6] = target: SARS-CoV-2 Omicron BA.4/5 假病毒 S蛋白 (SARS-CoV-2 (Omicron BA.4/5))
[7] = target: SARS-CoV-2 Delta 假病毒 S蛋白 (SARS-CoV-2 (Delta))
[8] = target: SARS-CoV-2 Omicron BA.1 假病毒 S蛋白 (SARS-CoV-2 (Omicron BA.1))

B1: 沙贝病毒广谱人源中和抗体74 (antibody, V domains shown)
VH: QVQLVQSGAQLKKPGESLKISCKGSGYNFSRYWIAWVRHMPGKGLEVMGIIYPDDSDTRYSPSVRGQVTISADKSTSIVYLQWSSLKASDTGIYYCARFGAGMTGMPRYFDTTRWFDPWGQGTQVTVSS
VL: QSVLTQPPSVSGAPGQRVTISCLGGSSNIGAGYDVHWYQHLPGAAPKLLISGNSNRPSGVPARFSGSKSGTSASLAITGLQAEDEADYYCQSYDNDLSQVFGGGTKLTVLG
IC50, 假病毒中和 [1]: 0.2 µg/mL
IC50, 假病毒中和 [2]: 0.76 µg/mL
IC50, 假病毒中和 [3]: 1.62 µg/mL
IC50, 假病毒中和 [4]: 3.49 µg/mL
IC50, 假病毒中和 [5]: 1.7 µg/mL
IC50, 假病毒中和 [6]: 2.81 µg/mL
IC50, 假病毒中和 [7]: 1.7 µg/mL
IC50, 假病毒中和 [8]: 0.91 µg/mL
